The source of these data is paper PMC12507662 (Nature, 2025).

In the experiment the target is postfusion gB (ectodomain of wild type) (herpes simplex virus 1 (HSV-1), UniProt A1Z0P7). In words: grating-coupled interferometry; gB immobilised by C-terminal Twin-Strep-tag on Strep-Tactin XT chip (400 pg mm^-2); 25 °C; 20 mM HEPES pH 8.0, 300 mM NaCl; waveRAPID tight binder protocol, 200 nM Nb1_gbHSV, regeneration with 3 M GuHCl. The note with it: both partners purified.

B1: Nb1_gbHSV (VHH)
VHH: QVQLVESGGGSVQPGGSLRLSCAASASGRLSMSGALGWYRQVQGKSRELVATITDRSSTNYADSVKGRFTISIDDAENTMYLQMNSLKPEDTGVYYCNARWRGMNVWGKGTRVTVSS
notes: alpaca VHH from an immune library; Unlabelled form used for grating-coupled interferometry, cryo-EM with stabilized HSV-1 gB and plaque reduction; also called the nanobody; neutralizing nanobody; source: E. coli SHuffle Express, cytoplasmic, purified (Ni2+ chelate column, eluted by cleaving the tag with Ulp1p)
As for B1, the binding result is listed as “no binding (tested: 200 nM)”.
